Assay results taken from US20190153113A1, “CD39 VASCULAR ISOFORM TARGETING AGENTS” (INNATE PHARMA, priority 2015, published 2019).

What was measured:
[1] = biological target: T1, CD39-L3 (Homo sapiens, UniProt O75355); test: ELISA titration on recombinant human CD39 isoforms; format: binding; conditions: recombinant protein coated
T1 sequence (O75355 1-529): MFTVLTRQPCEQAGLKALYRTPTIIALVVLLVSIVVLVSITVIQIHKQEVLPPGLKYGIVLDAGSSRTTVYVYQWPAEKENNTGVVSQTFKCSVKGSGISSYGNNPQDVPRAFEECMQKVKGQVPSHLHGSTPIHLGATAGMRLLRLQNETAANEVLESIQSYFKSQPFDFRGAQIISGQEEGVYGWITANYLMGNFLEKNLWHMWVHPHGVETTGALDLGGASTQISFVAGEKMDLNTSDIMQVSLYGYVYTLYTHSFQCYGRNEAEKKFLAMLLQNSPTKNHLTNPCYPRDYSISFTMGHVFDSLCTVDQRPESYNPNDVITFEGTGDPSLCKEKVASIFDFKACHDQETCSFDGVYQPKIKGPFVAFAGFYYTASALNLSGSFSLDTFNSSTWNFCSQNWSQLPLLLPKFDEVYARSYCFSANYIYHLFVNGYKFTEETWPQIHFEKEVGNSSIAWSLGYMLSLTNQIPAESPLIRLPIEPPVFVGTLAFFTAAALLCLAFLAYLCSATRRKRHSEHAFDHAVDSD
Protocol: Wells were washed in TBS Tween 20, and further saturated 2H at RT in TBS Blocking buffer. Dose range concentration of primary antibody was incubated in TBS blocking buffer for 2h at RT. Wells were washed in TBS Tween 20. […] Optical density was measured on Enspire at OD=450.

[2] = biological target: T2, CD39 mutant 19 (R138A, M139A, E142K) (human, UniProt P49961 1-510); test: flow cytometry, HEK293T cells transfected with mutant 19
T2 construct: Transfected in HEK293T cells
T2 chain: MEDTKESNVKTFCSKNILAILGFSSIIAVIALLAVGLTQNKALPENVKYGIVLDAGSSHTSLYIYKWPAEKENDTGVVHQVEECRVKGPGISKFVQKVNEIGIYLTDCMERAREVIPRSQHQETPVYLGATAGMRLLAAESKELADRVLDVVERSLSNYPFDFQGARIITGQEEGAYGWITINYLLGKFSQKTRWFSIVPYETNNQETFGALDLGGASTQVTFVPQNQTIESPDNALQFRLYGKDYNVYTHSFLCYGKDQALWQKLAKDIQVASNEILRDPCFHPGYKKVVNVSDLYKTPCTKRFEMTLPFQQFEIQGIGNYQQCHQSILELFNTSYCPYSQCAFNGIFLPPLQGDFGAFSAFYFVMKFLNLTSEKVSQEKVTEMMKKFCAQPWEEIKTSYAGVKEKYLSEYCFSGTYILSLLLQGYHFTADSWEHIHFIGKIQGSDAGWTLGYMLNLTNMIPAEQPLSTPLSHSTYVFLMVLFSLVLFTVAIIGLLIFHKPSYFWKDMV

[3] = biological target: T3, Human CD39 (vascular CD39, NTPDase1, ENTPD1) expressed at the cell surface (human, UniProt P49961 1-510); test: flow cytometry on HEK cells expressing human CD39, antibody 99 nM to 0.045 nM (FIG. 1 legend says ELISA)
T3 construct: also called huCD39; HEK-huCD39
T3 sequence: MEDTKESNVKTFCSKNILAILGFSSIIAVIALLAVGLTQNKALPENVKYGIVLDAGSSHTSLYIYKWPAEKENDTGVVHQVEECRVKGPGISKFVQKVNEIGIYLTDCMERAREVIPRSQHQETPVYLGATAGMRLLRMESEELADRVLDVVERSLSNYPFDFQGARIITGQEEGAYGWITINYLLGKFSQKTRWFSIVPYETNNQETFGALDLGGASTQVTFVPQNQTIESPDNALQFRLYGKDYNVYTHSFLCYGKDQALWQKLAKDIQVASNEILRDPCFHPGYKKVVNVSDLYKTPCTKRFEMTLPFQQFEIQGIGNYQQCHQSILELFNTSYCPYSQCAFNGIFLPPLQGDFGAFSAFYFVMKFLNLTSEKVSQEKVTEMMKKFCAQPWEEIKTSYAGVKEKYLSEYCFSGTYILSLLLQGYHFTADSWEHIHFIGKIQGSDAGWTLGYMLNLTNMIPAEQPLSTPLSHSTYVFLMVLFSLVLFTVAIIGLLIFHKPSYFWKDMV
Protocol: (§1) Briefly, 1×10⁵ HEK-huCD39or cynoCD39 cells were incubated with various concentration of unlabeled anti-CD39 antibody or isotype control (IC) from 99 nM to 0.045 nM, for 30 minutes at 4° C. After washes, cells were incubated with Goat anti-mouse H+L labeled secondary antibody for 30 min at 4° C.

[4] = biological target: T4, Cynomolgus CD39 expressed on HEK cells (cynomolgus, UniProt A0A7N9DGH8 1-510); test: flow cytometry on HEK cells expressing cynomolgus CD39, antibody 99 nM to 0.045 nM (FIG. 1 legend says ELISA)
T4 construct: whole, on cells; also called cynoCD39; cynomolgus vascular CD39
T4 sequence: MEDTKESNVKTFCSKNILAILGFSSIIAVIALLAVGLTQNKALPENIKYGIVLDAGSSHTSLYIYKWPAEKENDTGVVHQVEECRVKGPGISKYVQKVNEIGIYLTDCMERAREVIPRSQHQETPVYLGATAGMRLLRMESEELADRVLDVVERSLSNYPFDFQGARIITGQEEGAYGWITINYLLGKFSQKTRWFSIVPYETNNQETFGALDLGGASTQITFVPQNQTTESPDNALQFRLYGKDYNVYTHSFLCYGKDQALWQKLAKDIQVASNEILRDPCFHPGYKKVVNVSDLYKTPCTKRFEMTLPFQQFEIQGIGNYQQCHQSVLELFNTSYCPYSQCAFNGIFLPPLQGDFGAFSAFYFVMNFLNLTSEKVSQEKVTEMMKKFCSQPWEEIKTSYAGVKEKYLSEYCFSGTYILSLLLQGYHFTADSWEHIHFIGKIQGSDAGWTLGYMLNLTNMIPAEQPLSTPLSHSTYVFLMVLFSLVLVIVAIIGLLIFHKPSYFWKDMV
Protocol: as §1

B1: I-392: anti-CD39 antibody, VH SEQ ID NO: 8 and VL SEQ ID NO: 9, chimeric human IgG1 with N297Q mutation (antibody, V domains shown)
VH: QIQLVQSGPEVKKPRETVKISCKASGYTFTHYGMNWVKQAPGKGLKWMGWINTYTGEPTYADDFKGRFAFSLEASASTAYLQINNLKNEDTATYFCARRRYEGNYVFYYFDYWGQGTTLTVSS
VL: DIQMTQSPASLSASVGETVTITCRASENIYSYFSWYQQKQGKSPQLLVYTAKTLAEGVPSRFSGSGSGTQFSLKINSLQPEDFGSYYCQHHYVTPYTFGGGTKLEIK
For B1, the “binding to CD39-L3” value [1] was “not to any of the CD39 isoforms”.

B2: Antibody I-391, Fc silent recombinant chimeric human IgG1 with heavy chain N297Q mutation (antibody, V domains shown)
VH: QIQLVQSGPELKKPGETVKISCKASGYTFRNYGMNWVKQAPGKGLKWMGWINTYTGEPTYADDFKGRFAFSLATSASTAYLQISNLKNEDTATYFCARKAYYGSNYYFDYWGQGTTLTVSS
VL: DIVMTQSHKFMSTSVGDRVSITCKASQDVSTAVAWYQQKPGQSPKLLIYSASYRYTGVPDRFTGSGSGTDFTFTISTVQAEDLAVYYCQQHYTTPPYTFGGGTKLEIKR
B2 was tested, and the binding result [2] was “binds”, the EC50 [3] was 14.9 nM and the EC50 [4] was 10.6 nM.
